US20250197505A1 (DREN BIO, published 2025)

How the values were obtained:
[1] = target: T1, cynomolgus CD94 expressed on HEK293 cells (cynomolgus monkey, UniProt Q68VD4 1-179); experiment: flow cytometry, cynomolgus CD94-expressing HEK293 cells
T1 construct: also called cyno-CD94; cynomolgus monkey CD94
T1 sequence: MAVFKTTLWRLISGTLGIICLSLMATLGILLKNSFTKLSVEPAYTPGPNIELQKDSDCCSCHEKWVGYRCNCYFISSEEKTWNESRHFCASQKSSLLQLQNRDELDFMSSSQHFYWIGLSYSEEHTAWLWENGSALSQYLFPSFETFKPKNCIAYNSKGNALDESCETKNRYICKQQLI
Source text: Anti-CD94 hybridoma supernatants were screened on cynomolgus CD94-expressing HEK293 cells by flow cytometry for cross-reactivity to cynomolgus CD94. HP-3D9 is a commercial anti-CD94 antibody that was used as a negative control. Mouse IgG1, IgG2a, IgG2b and IgG3 were used as negative controls. […] Commercially available anti-CD94 antibodies were used to test cynomolgus cross-reactivity. 18H3 was used as a positive control. The MFI of each antibody was normalized to the MFI of its respective isotype.
Cynomolgus CD94-expressing HEK293 cells were seeded in 96-well plates at a density of 100,000 cells per well, incubated with cell viability dye (Thermo Fisher) for 30 minutes on ice and protected from light. The cells were washed once with FACS buffer (PBS with 2% IgG low FBS). Hybridoma supernatants, anti-CD94 antibodies and isotype controls were incubated with cells for 30 minutes on ice and protected from light. […] After incubation, the cells received a final wash in FACS buffer before quantification on the Cytoflex (Beckman Coulter). All data acquisition and fluorescence compensation were performed using CytoFlex (Beckman Coulter, Atlanta, GA). […] CD94 expression was then quantified on this population. […]

[2] = target: T2, human CD94 expressed on cells (human primary NK cells in PBMCs; HEK cells expressing human CD94) (human, UniProt Q13241 1-179); experiment: cell-based or functional assay
T2 sequence (looked up): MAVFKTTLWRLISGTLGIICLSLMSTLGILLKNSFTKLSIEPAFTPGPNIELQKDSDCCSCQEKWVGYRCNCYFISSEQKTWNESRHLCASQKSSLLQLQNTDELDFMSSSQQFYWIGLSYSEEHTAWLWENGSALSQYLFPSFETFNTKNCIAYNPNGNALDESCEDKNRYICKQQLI

[3] = target: T2, human CD94 expressed on cells (human …); experiment: competition assay, flow cytometry on CD3-CD56+ NK cells in healthy donor PBMCs; AF647-labelled 18H3 titrated in the presence of Mouse IgG1 control (no competitor)
Experimental: FIGS. 5A-5B show the results of competition assays performed for 18H3 anti-CD94 antibody evaluation. For all competition assays, 18H3 was incubated with PBMCs at a concentration of […]. […] Commercially available anti-CD94 antibodies were titrated and incubated with PBMCs concurrently with 18H3. […] To test competition between 18H3 and 1M4/1E4, 1M4 and 1E4 were incubated with cells at concentrations of 8.5 µg/ml and […], respectively. 18H3 was fluorescently tagged with AF647 and incubated with cells concurrently with […].
Healthy donor PBMCs were seeded in 96-well plates at a density of 100,000 cells per well, incubated with human Fc block (Biolegend) and cell viability dye (Thermo Fisher) for 30 minutes on ice and protected from light. The cells were washed once with FACS buffer (PBS with 2% IgG low FBS). Unconjugated anti-CD94 antibodies at EC80 concentrations, CD3 FITC and CD56 PE antibodies, and APC-labeled anti-CD94 antibodies were incubated with cells for 30 minutes on ice and protected from light. The cells then received a final wash in FACS buffer before quantification on the Cytoflex (Beckman Coulter). All data acquisition and fluorescence compensation were performed using CytoFlex (Beckman Coulter, Atlanta, GA). Data analysis was performed using FlowJo software. […] Anti-CD94 APC was then quantified on the CD3−CD56+NK cell population. […]

[4] = target: T2, human CD94 expressed on cells (human …); experiment: HLA-E tetramer blocking assay, flow cytometry on CD3-CD56+ NK cells in healthy donor PBMCs; antibody at one saturating concentration, blocked ligand PE-labelled HLA-E tetramer; percent blocking = 100-((percent HLA-E positive with antibody)/(percent HLA-E positive with isotype)*100)
Experimental: Healthy donor PBMCs were incubated with anti-CD94 antibodies. PE labeled HLA-E tetramer was then incubated with the cell and antibody mixture, and detected using flow cytometry. For HP-3B1, 131412, 12K45, DX22, 1M4 and 1E4, 2.5 μl of HLA-E tetramer reagent was used, while 5 μl was used for 18H3 and HP-3D9. Saturating concentrations of each antibody was used in this assay. The percent blocking was calculated as 100−((percent HLA-E positive for anti-CD94 antibody)/(percent HLA-E positive for isotype)*100).
Healthy donor PBMCs were seeded in 96-well plates at a density of 100,000 cells per well, incubated with human Fc block (Biolegend) and cell viability dye (Thermo Fisher) for 30 minutes on ice and protected from light. The cells were washed once with FACS buffer (PBS with 2% IgG low FBS). anti-CD94 antibodies at EC80 concentrations were incubated with cells for 30 minutes on ice and protected from light. After incubation with the anti-CD94 antibodies, the cells were washed and incubated with HLA-E tetramer PE (Creative Biolabs), anti-CD3 pacific blue-labelled, and anti-CD56 FITC-labelled antibodies (Biolegend) for 30 minutes on ice and protected from light. The cells then received a final wash in FACS buffer before quantification on the Cytoflex (Beckman Coulter). All data acquisition and fluorescence compensation were performed using CytoFlex (Beckman Coulter, Atlanta, GA). Data analysis was performed using FlowJo software. NK cells were identified through gating on lymphocytes on the forward and side scatter, followed by doublet and dead cell exclusion, and gated on the CD3−CD56+ population. HLA-E expression was then quantified on the CD3−CD56+NK cell population. Percent blocking was calculated as 100−((percent HLA-E positive for anti-CD94 antibody)/(percent HLA-E positive for isotype)*100).

binding result [1]: binds
percent decrease in MFI (antibody internalization assay), comparing 0.5 hours to 24 hours at 37° C. [2]: 24%
EC50 (read off the curve) [3]: ~1 nM
HLA-E Blocking [4]: 0%
B1: anti-CD94 antibody clone 18H3 (antibody, V domains shown)
VH: EVQLVQSGAEVKKPGESLKISCKGSGYRFTSYWIGWVRQMPGKGLEWMGIIYPGDSDTRYSPSFQGQVIISADKSITTAFLQWSSLKASDTAMYYCARPFDYGGSPGYFDYWGQGTLVTVSS
VL: DIQMTQSPSTLSASVGDRVTITCRASQSIRSWLAWYQQKPGKAPKLLIYKASSLESGVPSRFSGSGSGTEFTLTISSLQPDDFATYYCQQYNTFWTFGQGTKVEIK
notes: also called 18H3-AF647
